Experimental data as given in publication PMC5708649, “A novel Porphyromonas gingivalis enzyme: An atypical dipeptidyl peptidase III with an ARM repeat domain” (PLoS ONE, 2017).

Experiments:
[1] = substrate: Cc1cc(=O)oc2cc(NC(=O)[C@H](CCCNC(=N)N)NC(=O)[C@@H](N)CCCNC(=N)N)ccc12; assay: purified protein, by the assay type; settings: pH 8.0; 26.0 °C
[2] = substrate: N=C(N)NCCC[C@H](NC(=O)[C@@H](N)CCCNC(=N)N)C(=O)Nc1ccc2ccccc2c1; assay: purified protein, by the assay type; settings: pH 8.0; 26.0 °C

B1: Full length PgDPP III (1–886 aa) (Porphyromonas gingivalis W83) (protein)
chain: MTKETTQHRSGERIARFADIEVLSYRADLFGTLTPKQRMLCYHLSEAALRGRDITTIQNCRYNLWVRSLMERIYTHLSKSERTDDFALLEEYLFCIWFANGIHHHYSGAKFIARFSPGFLRAALREAGVELEPEEQVLLERVLYDTDFLPKQTEQSGEEDIIKASSVNFYAPGITRAEAESHYKNLIEALPENEKSCPPSFGLNTRLIRSTSGELKDEVCCIDGLYGPAIEAVVASLEAAIPYTENEEQAACIRLLCDYYRTGDIRLYDRFCIRWVENNRTRIDFINGFTEVYADPIGIHGSWEGLVHMQDEEAGRRTRIISEHAGWFEAHSPIDARFRKKNPHGISATVVNVLTIAGDSYPATPIGINLPNADWIRAEHGSKSVTIDNITDAYNHAARGTGLYEEFIPDEEVRRHVELHADLTDSLHTDLHECLGHGSGQLLPGVPGDALGEHASTLEETRADLFALYFLADPKMIELGLLTDPDAYKANYYKYMLNGLMTQLVRIKRGEEIEEAHMRNRALIARYVLEHAERPGAMSLVCEEGKTALVIKDYEAVRAIIAGLLTEVQRIKSEGDYTAGKALVERYAVHVDPLLHEEVLTRYAKLDIAPYKGFVNPRLRPVYNSEGRLTDATIEYTEGYAEQMLRYSAEYSFLPTDSPLLQEARRLRSHLRRAMDGVLSASMREKGLHYGINFGVTREHLLRLARTADASAPLADYLWRRDVRETKILATMIFPAEELTHEQATRLLREADNVELREQLTANLLERMPEAIRSIGRWIESKETTPDMMTGVLTLAARLFTRGIFPEDVPAEKLLTLAILHLSDEEQKAELRRASALLLKRYGRGSAERTKKVLCLLPESSQDTAPVLYELCEDIRFELDFYPKDE
- Km [1]: 2.56 ± 0.32 µM
- kcat [1]: 0.29 ± 0.11 s⁻¹
- kcat/Km [1]: 113000 M⁻¹ s⁻¹
- Km [2]: 0.97 ± 0.16 µM
- kcat [2]: 0.75 ± 0.13 s⁻¹
- kcat/Km [2]: 773000 M⁻¹ s⁻¹
